In article PMC6509496, “Crystal structure of the TreS:Pep2 complex, initiating α-glucan synthesis in the GlgE pathway of mycobacteria” (The Journal of Biological Chemistry, 2019):

Molecular target: the molecule itself
Test: SEC

| Protein | binding result |
| --- | --- |
| Mycobacterium tuberculosis TreS P511W (enzyme, also called Mtb TreS-P511W) MNEAEHSVEHPPVQGSHVEGGVVEHPDAKDFGSAAALPADPTWFKHAVFYEVLVRAFFDASADGSGDLRGLIDRLDYLQWLGIDCIWLPPFYDSPLRDGGYDIRDFYKVLPEFGTVDDFVALVDAAHRRGIRIITDLVMNHTSESHPWFQESRRDPDGPYGDYYVWSDTSERYTDARIIFVDTEESNWSFDPVRRQFYWHRFFSHQPDLNYDNPAVQEAMIDVIRFWLGLGIDGFRLDAVPYLFEREGTNCENLPETHAFLKRVRKVVDDEFPGRVLLAEANQWPGDVVEYFGDPNTGGDECHMAFHFPLMPRIFMAVRRESRFPISEIIAQTPPIPDMAQWGIFLRNHDELTLEMVTDEERDYMYAEYAKDPRMKANVGIRRRLAPLLDNDRNQIELFTALLLSLPGSPVLYYGDEIGMGDVIWLGDRDGVRIPMQWTPDRNAGFSTANPGRLYLPPSQDPVYGYQAVNVEAQRDTSTSLLNFTRTMLAVRRRHPAFAVGAFQELGGSNWSVLAYVRQVAGDDGDTVLCVNNLSRFPQPIELDLQQWTNYTPVELTGHVEFPRIGQVPYLLTLPGHGFYWFQLTTHEVGAPPTCGGERRL | binds |
| Mycobacterium tuberculosis TreS R320E (enzyme, also called Mtb TreS-R320E) MNEAEHSVEHPPVQGSHVEGGVVEHPDAKDFGSAAALPADPTWFKHAVFYEVLVRAFFDASADGSGDLRGLIDRLDYLQWLGIDCIWLPPFYDSPLRDGGYDIRDFYKVLPEFGTVDDFVALVDAAHRRGIRIITDLVMNHTSESHPWFQESRRDPDGPYGDYYVWSDTSERYTDARIIFVDTEESNWSFDPVRRQFYWHRFFSHQPDLNYDNPAVQEAMIDVIRFWLGLGIDGFRLDAVPYLFEREGTNCENLPETHAFLKRVRKVVDDEFPGRVLLAEANQWPGDVVEYFGDPNTGGDECHMAFHFPLMPRIFMAVREESRFPISEIIAQTPPIPDMAQWGIFLRNHDELTLEMVTDEERDYMYAEYAKDPRMKANVGIRRRLAPLLDNDRNQIELFTALLLSLPGSPVLYYGDEIGMGDVIWLGDRDGVRIPMQWTPDRNAGFSTANPGRLYLPPSQDPVYGYQAVNVEAQRDTSTSLLNFTRTMLAVRRRHPAFAVGAFQELGGSNPSVLAYVRQVAGDDGDTVLCVNNLSRFPQPIELDLQQWTNYTPVELTGHVEFPRIGQVPYLLTLPGHGFYWFQLTTHEVGAPPTCGGERRL | binds |
